# Measured values: paper PMC8844075, “Structural basis of neuropeptide Y signaling through Y1 receptor” (Nature Communications, 2022)
# Target: Y1R-eYFP (wild-type Y1R) (human) (UniProt P25929)
# Sequence (P25929 whole entry): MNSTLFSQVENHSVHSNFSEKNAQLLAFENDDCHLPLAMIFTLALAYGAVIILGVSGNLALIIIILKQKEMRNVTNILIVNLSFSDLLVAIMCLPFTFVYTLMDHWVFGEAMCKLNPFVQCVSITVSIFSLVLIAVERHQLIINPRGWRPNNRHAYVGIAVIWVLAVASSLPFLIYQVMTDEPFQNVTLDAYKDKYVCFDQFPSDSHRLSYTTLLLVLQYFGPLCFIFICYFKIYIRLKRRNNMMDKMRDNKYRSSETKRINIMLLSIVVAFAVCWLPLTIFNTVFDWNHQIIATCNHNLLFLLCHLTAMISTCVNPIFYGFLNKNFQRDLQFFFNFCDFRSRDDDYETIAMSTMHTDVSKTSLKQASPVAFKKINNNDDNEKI
# peptide YY (PYY), sequence (P10082 29-64): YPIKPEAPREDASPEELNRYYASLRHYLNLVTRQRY
# PYY(3–36), sequence (P10082 31-64): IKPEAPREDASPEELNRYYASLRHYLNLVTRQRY
row,"Ca2+ signalling assay in HEK293T cells, EC50 [nM]",Substance
1,86,NPY(3–36) (from UniProt P01303 31-64) (peptide)
2,77,PYY(3–36) (from UniProt P10082 31-64) (peptide)
3,6.1,peptide YY (PYY) (from UniProt P10082 29-64)
